In general, Kd refers to the concentration at which binding is half-saturated. The EC50 is the midpoint of the concentration-response curve.

Data on 5 molecules can be found in article PMC11098434, “The effect of TG2-inhibitory monoclonal antibody zampilimab on tissue fibrosis in human in vitro and primate in vivo models of chronic kidney disease” (PLOS ONE, 2024).

Positions count from the first letter of the chain named.

For test [1], the target named is zampilimab (human). Nature of the test: SPR; as the SPR with calcium (antibody captured by anti-human Fc, TG2 flowed over) but in the absence of calcium (-Ca2+); buffer of this condition not detailed.
Test [2] concerns the target zampilimab (human). Nature of the test: SPR; BIAcore T200; test antibody captured (~100-200 RU) by goat anti-human IgG Fc F(ab')2 immobilised on a CM5 chip; TG2 titrated over it at 100 nM to 6.25 nM, 600 s association, up to 3200 s dissociation; 10 mM HEPES pH 7.4, 0.15 M NaCl, 0.005% Surfactant P20, 2 mM CaCl2 (+Ca2+); 1:1 fit. For orientation: In SPR one partner is held on a chip, and binding of the other changes the refractive index at the surface.

Test [3] deals with T1, human transglutaminase 2 (Homo sapiens, UniProt P21980).
Test [4] has as its target cynomolgus monkey transglutaminase 2 (cynomolgus monkey).
Test [5] addresses T1, human transglutaminase 2. Nature of the test: cell-based or functional assay.
In test [6] the target is T1, human transglutaminase 2. Nature of the test: cell-based or functional assay. The source holds these as a separate data set.
For test [7], the target named is rabbit transglutaminase 2 (Oryctolagus cuniculus (rabbit), UniProt A0A5F9DRZ3). In words: cell-based or functional assay.
The next test deals with T2, TG7 (Homo sapiens (assumed), UniProt Q96PF1).
T2 construct: transglutaminase family member TG7; also called transglutaminase 7
Nature of the test: ELISA; ELISA of the humanized antibodies on TG2 and other TG family members; antibody up to 100 nM; format not described. For orientation: An ELISA detects its analyte on a solid surface through an enzyme-linked reagent.

Test [8] addresses T3, TG2 (as used in the ELISA of the humanized antibodies) (Homo sapiens (assumed), UniProt P21980).
T3 construct: transglutaminase 2 (TG2); also called transglutaminase 2
The description is as above.

A further test concerns the target T4, TG1 (Homo sapiens (assumed), UniProt P22735).
T4 construct: transglutaminase family member TG1; also called transglutaminase 1
The description is as above.

The target of the next test is T5, TG3 (Homo sapiens (assumed), UniProt Q08188).
T5 construct: transglutaminase family member TG3; also called transglutaminase 3
Described as above.

A further test deals with T6, TG5 (Homo sapiens (assumed), UniProt O43548).
T6 construct: transglutaminase family member TG5; also called transglutaminase 5
The test is described as above.

The target of test [9] is T1, human transglutaminase 2. In words: SPR; as the SPR with calcium (antibody captured by anti-human Fc, TG2 flowed over) but in the absence of calcium (-Ca2+); buffer of this condition not detailed. To be noted: both partners purified.
Test [10] concerns the target T1, human transglutaminase 2. Nature of the test: SPR; BIAcore T200; test antibody captured (~100-200 RU) by goat anti-human IgG Fc F(ab')2 immobilised on a CM5 chip; TG2 titrated over it at 100 nM to 6.25 nM, 600 s association, up to 3200 s dissociation; 10 mM HEPES pH 7.4, 0.15 M NaCl, 0.005% Surfactant P20, 2 mM CaCl2 (+Ca2+); 1:1 fit. The note with it: both partners purified.

Test [11] deals with rabbit transglutaminase 2 (rabbit).

T1 sequence (P21980 whole entry): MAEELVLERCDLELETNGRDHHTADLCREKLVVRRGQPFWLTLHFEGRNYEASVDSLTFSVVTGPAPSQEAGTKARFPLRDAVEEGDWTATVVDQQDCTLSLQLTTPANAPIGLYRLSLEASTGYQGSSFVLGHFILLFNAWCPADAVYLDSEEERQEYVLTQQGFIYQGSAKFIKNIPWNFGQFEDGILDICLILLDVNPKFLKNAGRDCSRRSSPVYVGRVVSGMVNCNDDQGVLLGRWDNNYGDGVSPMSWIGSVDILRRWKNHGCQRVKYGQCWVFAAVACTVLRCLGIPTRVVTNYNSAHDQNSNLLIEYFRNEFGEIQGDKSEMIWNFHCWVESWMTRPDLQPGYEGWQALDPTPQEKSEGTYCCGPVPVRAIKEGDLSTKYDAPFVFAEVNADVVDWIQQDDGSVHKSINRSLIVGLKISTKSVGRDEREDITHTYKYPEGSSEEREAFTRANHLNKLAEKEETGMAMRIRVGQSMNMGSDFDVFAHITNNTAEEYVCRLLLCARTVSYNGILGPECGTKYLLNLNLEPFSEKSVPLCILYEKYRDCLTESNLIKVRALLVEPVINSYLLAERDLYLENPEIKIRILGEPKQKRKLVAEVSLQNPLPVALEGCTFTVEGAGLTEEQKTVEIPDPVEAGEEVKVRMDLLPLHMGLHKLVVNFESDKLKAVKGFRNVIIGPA
T2 sequence (Q96PF1 whole entry): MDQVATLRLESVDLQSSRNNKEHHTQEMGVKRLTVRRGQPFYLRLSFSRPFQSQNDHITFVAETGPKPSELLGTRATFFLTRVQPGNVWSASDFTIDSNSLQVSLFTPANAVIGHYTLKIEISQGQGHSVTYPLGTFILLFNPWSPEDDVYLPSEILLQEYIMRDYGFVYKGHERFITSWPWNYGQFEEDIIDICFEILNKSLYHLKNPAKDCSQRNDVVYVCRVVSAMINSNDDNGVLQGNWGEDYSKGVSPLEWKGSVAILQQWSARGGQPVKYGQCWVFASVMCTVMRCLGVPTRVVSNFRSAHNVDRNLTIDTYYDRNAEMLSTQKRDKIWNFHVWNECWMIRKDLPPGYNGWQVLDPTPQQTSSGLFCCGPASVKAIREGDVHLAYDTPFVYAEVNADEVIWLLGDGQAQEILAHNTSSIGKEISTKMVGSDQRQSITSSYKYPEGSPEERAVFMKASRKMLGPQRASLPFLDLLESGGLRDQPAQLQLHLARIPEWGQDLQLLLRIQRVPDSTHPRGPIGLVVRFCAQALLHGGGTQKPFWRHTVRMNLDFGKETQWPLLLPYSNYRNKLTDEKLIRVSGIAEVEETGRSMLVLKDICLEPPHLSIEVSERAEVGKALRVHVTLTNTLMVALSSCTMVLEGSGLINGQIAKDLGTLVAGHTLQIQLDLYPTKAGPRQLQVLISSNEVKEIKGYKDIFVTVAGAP
T5 sequence (Q08188 whole entry): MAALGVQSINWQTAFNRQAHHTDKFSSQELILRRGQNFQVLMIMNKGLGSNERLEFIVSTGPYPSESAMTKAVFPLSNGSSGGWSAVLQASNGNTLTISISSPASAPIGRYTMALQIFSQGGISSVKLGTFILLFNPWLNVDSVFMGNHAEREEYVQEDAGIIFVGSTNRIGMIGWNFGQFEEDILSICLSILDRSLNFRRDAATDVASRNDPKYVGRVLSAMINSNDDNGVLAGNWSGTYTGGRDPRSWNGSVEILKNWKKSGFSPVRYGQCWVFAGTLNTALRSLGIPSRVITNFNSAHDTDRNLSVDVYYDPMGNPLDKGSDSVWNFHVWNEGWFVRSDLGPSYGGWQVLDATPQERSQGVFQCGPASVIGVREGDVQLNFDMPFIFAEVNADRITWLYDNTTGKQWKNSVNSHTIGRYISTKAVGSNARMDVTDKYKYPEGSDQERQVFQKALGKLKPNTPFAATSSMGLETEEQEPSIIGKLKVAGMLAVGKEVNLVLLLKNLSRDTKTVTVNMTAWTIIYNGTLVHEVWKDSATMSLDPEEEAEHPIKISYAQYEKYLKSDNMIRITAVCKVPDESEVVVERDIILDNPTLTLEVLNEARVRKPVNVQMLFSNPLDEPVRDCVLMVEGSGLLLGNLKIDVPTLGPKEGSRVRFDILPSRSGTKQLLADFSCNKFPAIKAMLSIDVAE
T3 sequence (P21980 whole entry): as the sequence (P21980 whole entry) above
T4 sequence (P22735 whole entry): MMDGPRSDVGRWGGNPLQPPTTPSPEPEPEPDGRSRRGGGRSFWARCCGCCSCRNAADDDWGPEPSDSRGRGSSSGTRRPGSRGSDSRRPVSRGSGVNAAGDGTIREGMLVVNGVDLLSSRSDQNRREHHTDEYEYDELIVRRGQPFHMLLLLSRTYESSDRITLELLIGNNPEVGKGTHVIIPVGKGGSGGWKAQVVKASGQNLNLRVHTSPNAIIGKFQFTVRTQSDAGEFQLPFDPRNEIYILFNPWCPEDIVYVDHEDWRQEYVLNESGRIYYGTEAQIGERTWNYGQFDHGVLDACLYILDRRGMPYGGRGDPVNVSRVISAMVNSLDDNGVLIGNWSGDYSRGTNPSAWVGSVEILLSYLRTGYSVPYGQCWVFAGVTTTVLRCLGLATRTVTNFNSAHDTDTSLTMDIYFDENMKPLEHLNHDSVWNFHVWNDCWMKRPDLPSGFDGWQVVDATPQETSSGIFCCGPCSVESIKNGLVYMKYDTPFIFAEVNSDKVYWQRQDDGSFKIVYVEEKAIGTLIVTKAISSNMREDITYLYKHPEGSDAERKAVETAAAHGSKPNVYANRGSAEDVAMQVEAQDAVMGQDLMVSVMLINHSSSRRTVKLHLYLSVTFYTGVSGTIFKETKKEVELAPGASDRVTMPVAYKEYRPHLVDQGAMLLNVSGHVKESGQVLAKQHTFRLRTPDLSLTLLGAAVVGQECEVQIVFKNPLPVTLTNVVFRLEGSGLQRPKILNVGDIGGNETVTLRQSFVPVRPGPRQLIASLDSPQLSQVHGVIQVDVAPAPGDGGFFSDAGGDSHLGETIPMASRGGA
T6 sequence (O43548 whole entry): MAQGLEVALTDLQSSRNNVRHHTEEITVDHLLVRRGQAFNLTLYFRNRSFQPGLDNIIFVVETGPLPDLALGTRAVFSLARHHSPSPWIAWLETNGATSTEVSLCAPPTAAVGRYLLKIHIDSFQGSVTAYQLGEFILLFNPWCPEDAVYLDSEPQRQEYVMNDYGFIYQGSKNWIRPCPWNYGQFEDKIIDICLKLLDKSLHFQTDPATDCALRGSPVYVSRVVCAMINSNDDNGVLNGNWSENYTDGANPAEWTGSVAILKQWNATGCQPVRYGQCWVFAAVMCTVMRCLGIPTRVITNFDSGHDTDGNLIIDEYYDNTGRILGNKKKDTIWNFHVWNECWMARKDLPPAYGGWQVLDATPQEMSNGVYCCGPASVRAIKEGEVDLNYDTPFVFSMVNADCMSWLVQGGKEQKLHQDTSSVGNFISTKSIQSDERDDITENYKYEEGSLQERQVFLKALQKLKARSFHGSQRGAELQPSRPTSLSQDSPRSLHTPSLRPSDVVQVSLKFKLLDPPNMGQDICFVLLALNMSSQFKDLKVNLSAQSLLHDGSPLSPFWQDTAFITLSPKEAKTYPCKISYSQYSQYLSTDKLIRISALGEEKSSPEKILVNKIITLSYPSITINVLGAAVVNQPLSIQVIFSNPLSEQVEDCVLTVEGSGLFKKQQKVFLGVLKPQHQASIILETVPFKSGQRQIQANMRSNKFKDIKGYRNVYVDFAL

Take “cynomolgus monkey transglutaminase 2 (enzyme)”: the figures for the Kd with zampilimab (human) [1] and with zampilimab (human) [2] were under 0.05 nM and under 0.037 nM, respectively.

B1: mDC1 (antibody, V domains shown)
VH: EVQLVESGGGLVKPGGSLKLSCAASGFTLSTHAMSWVRQTPEKRLEWVATISSGGRSTYYPDSVKGRFTISRDNVKNTLYLQLSSLRSEDTAVYFCARLISTYWGQGTTLTVSS
VL: DITMTQSPSSIYASLGERVTITCKASQDINSYLTWFQQKPGKSPKILIYLVNRLVDGVPSRFSGSGSGQDYALTISSLEYEDMGIYYCLQYDDFPYTFGGGTKLEIK
As to B1, the binding result with human transglutaminase 2 [3] was “binds”.

B2: zampilimab (antibody, V domains shown)
VH: EVQLLESGGGLVQPGGSLRLSCAASGFTLSTHAMSWVRQAPGKGLEWVATISSGGRSTYYPDSVKGRFTISRDNSKNTLYLQMNSLRAEDTAVYFCARLISTYWGQGTLVTVSS
VL: DITMTQSPSSLSASVGDRVTITCKASQDINSYLTWFQQKPGKAPKILIYLVNRLVDGVPSRFSGSGSGQDYALTISSLQPEDFATYYCLQYDDFPYTFGQGTKVEIK
notes: humanized DC1 VH; DC1 CDRs grafted on the human framework AF062260 with back mutation of the 5 Å Proximity residues; human heavy chain constant region; humanized DC1 VK; DC1 CDRs grafted on the human framework AF193851 with back mutation of the 5 Å Proximity residues; The discussion speaks of zampilimab as an IgG4P antibody in the monkey study; also called hDC1; UCB7858; source: Expi293 cells, …
For B2, the IC50 of inhibition of TG2 activity (KxD assay on recombinant protein by the text; biotin cadaverine incorporation by the table's footnote) amounted to 0.22 nM in test [4], 0.25 nM with human transglutaminase 2 [6] and 103 nM in test [7]. In the test with human transglutaminase 2 [5], the “IC50 of inhibition of extracellular TG activity (biotin cadaverine incorporation) in primary human RPTEC induced with TGF-β1, four independent studies” value is 119 nM. Further, the binding result with TG7, in the test with TG1, with TG3 and in the test with TG5 was “no binding (tested: 100 nM)” in each case. This molecule yielded an EC50 in test [8] of about 0.02 nM. Besides, the Kd with human transglutaminase 2 [9] was under 0.107 nM; with human transglutaminase 2 [10] it was under 0.05 nM.

B3: hBB7 (antibody, V domains shown)
VH: B2 VH with F27I, T28I, L29F, T31S, H32S, I70V, N74S, F95Y, R98K, T102P
VL: B2 VL with T3K, I46T, V51T, V55M, D70E, Y71F, A72L, D92V
notes: humanized BB7 VH; BB7 CDRs grafted on the human framework AF062260 with back mutation of the 5 Å Proximity residues; human heavy chain constant region; humanized BB7 VK; BB7 CDRs grafted on the human framework AF193851 with back mutation of the 5 Å Proximity residues; also called humanized BB7; source: Expi293 cells, co-transfected heavy and kappa light chain vectors, purified from supernatant …
Consider B3, for which the results for the IC50 of inhibition of TG2 activity (KxD assay on recombinant protein by the text; biotin cadaverine incorporation by the table's footnote) (in test [4]; in test [11]; with human transglutaminase 2 [6]) were 0.25 nM, 6.59 nM and 0.28 nM, respectively. In addition, the binding result with TG7, with TG1, with TG3 and with TG5 was “no binding (tested: 100 nM)” in each case. This molecule registered a concentration giving a half-maximal response (EC50) in test [8] of about 0.02 nM. The Kd with human transglutaminase 2 [10] is under 0.06 nM.

B4: mBB7 (antibody, V domains shown)
VH: AVQLVESGGGLVKPGGSLKLSCAASGIIFSSSAMSWVRQTPEKRLEWVATISSGGRSTYYPDSVKGRFTVSRDSAKNTLYLQMDSLRSEDTAIYYCAKLISPYWGQGTTLTVSS
VL: AIKMTQSPSSMYASLGERVIITCKASQDINSYLTWFQQKPGKSPKTLIYLTNRLMDGVPSRFSGSGSGQEFLLTISGLEHEDMGIYYCLQYVDFPYTFGGGTKLEIK
With B4, the binding result with human transglutaminase 2 [3] is listed as “binds”.
